These results are taken from publication PMC7884259 (Journal of medicinal chemistry, 2020).

What is called Kd is the equilibrium constant for the complex coming apart. Read a low Kd as higher affinity.

Changes are numbered by the printed parent chain. Where no end group is shown, it is not given here.

Assay [1] has as its target T1, ATAD2B bromodomain (residues 953–1085) (human, UniProt Q9ULI0 953-1085).
T1 sequence (looked up): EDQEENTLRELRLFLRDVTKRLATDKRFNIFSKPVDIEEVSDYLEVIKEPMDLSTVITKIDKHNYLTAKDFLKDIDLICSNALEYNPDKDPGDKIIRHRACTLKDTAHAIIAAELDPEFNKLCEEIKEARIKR
Put plainly: ITC.

The target of assay [2] is T2, ATAD2B bromodomain N1038A (human, UniProt Q9ULI0 953-1085, N1038A).
T2 sequence (looked up): T1 sequence (looked up) with N86A
The experiment in a line: ITC. For orientation: Isothermal titration calorimetry measures the heat released or taken up as one component is titrated into another.

Molecule SGRGKGGK(Ac)GL-NH2 [H4K8ac (res 1–10)] displayed a Kd in assay [1] of 1160 µM. In other words, the millimolar range. On the same count and under the same terms, the value for SGRGK(Ac)GGKGL-NH2 [H4K5ac (res 1–10)] was 48 µM; that for SGRGK(Ac)QGGKARA-NH2 [H2AK5ac (res 1–12)] was 42.5 µM.

For the molecule SGRGK(Ac)GGK(Ac)GL-NH2 [H4K5acK8ac (res 1–10)], the Kd in assay [1] is 28.1 µM; in assay [2], 623 µM.
